Assay results: US5910478A, “Peptidomimetics inhibiting the oncogenic action of p21 ras” (Innapharma, Inc., dated 1999)

B1: peptide of SEQ ID NO:9 (residues 118 to 124 of SEQ ID NO:5) (peptide)
peptide: CDLAART
B2: peptide of SEQ ID NO:4 (residues 119 to 122 of SEQ ID NO:5) (peptide)
peptide: DLAA
B3: peptide of SEQ ID NO:6 (residues 35 through 47 of SEQ ID NO:5) (peptide)
peptide: TIEDSYRKQVVID
B4: peptide of SEQ ID NO:7 (residues 96 to 110 of SEQ ID NO:5) (peptide)
peptide: YREQIKRVKDSDDVP
B5: Val-Val-Ile (peptide)
peptide: VVI
B6: peptide of SEQ ID NO:2 (residues 117 to 121 of SEQ ID NO:5) (peptide)
peptide: KCDLA
B7: peptide of SEQ ID NO:8 (residues 115 to 126 of SEQ ID NO:5) (peptide)
peptide: GNKCDLAARTVE
B8: Lys-Arg-Val (peptide)
peptide: KRV
B9: peptide of SEQ ID NO:1 (residues 100 to 105 of SEQ ID NO:5) (peptide)
peptide: IKRVKD

Molecular target: T1, recombinant transforming ras p21 (human)
T1 chain: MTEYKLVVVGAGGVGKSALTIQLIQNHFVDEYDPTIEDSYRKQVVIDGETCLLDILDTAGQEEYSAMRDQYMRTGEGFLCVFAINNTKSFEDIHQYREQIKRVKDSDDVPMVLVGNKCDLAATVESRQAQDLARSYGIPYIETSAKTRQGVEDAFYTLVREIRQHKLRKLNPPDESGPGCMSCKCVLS
Test: cell-based or functional assay
Settings: not given

Point of comparison: B5, “Present Inhibition of ras-Induced Maturation” value 34 percent. Against it:
- B1 — higher, 65 percent
- B2 — lower, 22 percent
- B3 — lower, 28 percent
- B4 — higher, 56 percent
- B6 — higher, 38 percent
- B7 — higher, 92 percent
- B8 — lower, 22 percent
- B9 — higher, 76 percent

Tested on: oncogenic ras-p-21
Test: not given
Settings: background; cited from earlier work

For N[C@@H](Cc1ccc(O)cn1)C(=O)O [Azatyrosine], the “inhibition of oncogenic ras-p-21” value is listed as “strongly inhibits”.
